First the molecules themselves.
B1: M198-F04 (Fab, V domains shown)
VH: EVQLLESGGGLVQPGGSLRLSCAASGFTFSIYDMWWVRQAPGKGLEWVSSIRPSGGITKYADSVKGRFTISRDNSKNTLYLQMNSLRAEDTAVYYCAYRRTGIPRRDAFDIWGQGTMVTVSS
VL: DIQMTQSPSTLSASVGDRVTITCRASQSISSWLAWYQQKPGKAPNLLIYKASTLESGVPSRFSGSGSGTEFTLTISSLQPDDFATYYCQQYNTYWTFGQGTKVEIK
B2: M198-A02 (Fab, V domains shown)
VH: EVQLLESGGGLVQPGGSLRLSCAASGFTFSRYSMIWVRQAPGKGLEWVSSIWSSGGATEYADSVKGRFTISRDNSKNTLYLQMNSLRAEDTAVYYCAYRRTGIPRRDAFDIWGQGTMVTVSS
VL: DIQMTQSPSTLSASVGDRVTITCRASQSISSWLAWYQQKPGKAPNLLIYKASTLESGVPSRFSGSGSGTEFTLTISSLQPDDFATYYCQQYNTYWTFGQGTKVEIK
B3: M202-A01 (Fab, V domains shown)
VH: EVQLLESGGGLVQPGGSLRLSCAASGFTFSHYIMMWVRQAPGKGLEWVSGIYSSGGITVYADSVKGRFTISRDNSKNTLYLQMNSLRAEDTAVYYCAYRRIGVPRRDAFDIWGQGTMVTVSS
VL: DIQMTQSPSTLSASVGDRVTITCRASQSISSWLAWYQQKPGKAPNLLIYKASTLESGVPSRFSGSGSGTEFTLTISSLQPDDFATYYCQQYNTYWTFGQGTKVEIK
B4: M198-H02 (Fab, V domains shown)
VH: EVQLLESGGGLVQPGGSLRLSCAASGFTFSPYNMYWVRQAPGKGLEWVSWIVPGGVTKYADSVKGRFTISRDNSKNTLYLQMNSLRAEDTAVYYCAYRRTGIPRRDAFDIWGQGTMVTVSS
VL: DIQMTQSPSTLSASVGDRVTITCRASQSISSWLAWYQQKPGKAPNLLIYKASTLESGVPSRFSGSGSGTEFTLTISSLQPDDFATYYCQQYNTYWTFGQGTKVEIK
B5: M195-D12 (Fab, V domains shown)
VH: EVQLLESGGGLVQPGGSLRLSCAASGFTFSIYGMFWVRQAPGKGLEWVSGIGPSGGPTKYADSVKGRFTISRDNSKNTLYLQMNSLRAEDTAVYYCAYRRTGIPRRDAFDIWGQGTMVTVSS
VL: DIQMTQSPSTLSASVGDRVTITCRASQSISSWLAWYQQKPGKAPNLLIYKASTLESGVPSRFSGSGSGTEFTLTISSLQPDDFATYYCQQYNTYWTFGQGTKVEIK
B6: M201-H06 (Fab, V domains shown)
VH: EVQLLESGGGLVQPGGSLRLSCAASGFTFSHYIMMWVRQAPGKGLEWVSGIYSSGGITVYADSVKGRFTISRDNSKNTLYLQMNSLRAEDTAVYYCAYRRTGVPRRDAFDIWGQGTMVTVSS
VL: DIQMTQSPSTLSASVGDRVTITCRASQSISSWLAWYQQKPGKAPNLLIYKASTLESGVPSRFSGSGSGTEFTLTISSLQPDDFATYYCQQYNTYWTFGQGTKVEIK
B7: M200-H07 (Fab, V domains shown)
VH: EVQLLESGGGLVQPGGSLRLSCAASGFTFSHYIMMWVRQAPGKGLEWVSGIYSSGGITVYADSVKGRFTISRDNSKNTLYLQMNSLRAEDTAVYYCAYRRTGVPRRNAFDNWGQGTMVTVSS
VL: DIQMTQSPSTLSASVGDRVTITCRASQSISSWLAWYQQKPGKAPNLLIYKASTLESGVPSRFSGSGSGTEFTLTISSLQPDDFATYYCQQYNTYWTFGQGTKVEIK
B8: M198-A07 (Fab, V domains shown)
VH: EVQLLESGGGLVQPGGSLRLSCAASGFTFSRYQMHWVRQAPGKGLEWVSWISPSGGITGYADSVKGRFTISRDNSKNTLYLQMNSLRAEDTAVYYCAYRRTGIPRRDAFDIWGQGTMVTVSS
VL: DIQMTQSPSTLSASVGDRVTITCRASQSISSWLAWYQQKPGKAPNLLIYKASTLESGVPSRFSGSGSGTEFTLTISSLQPDDFATYYCQQYNTYWTFGQGTKVEIK
B9: M198-E11 (Fab, V domains shown)
VH: EVQLLESGGGLVQPGGSLRLSCAASGFTFSTYSMYWVRQAPGKGLEWVSSIYPSGGLTWYADSVKGRFTISRDNSKNTLYLQMNSLRAEDTAVYYCAYRRTGIPRRDAFDIWGQGTMVTVSS
VL: DIQMTQSPSTLSASVGDRVTITCRASQSISSWLAWYQQKPGKAPNLLIYKASTLESGVPSRFSGSGSGTEFTLTISSLQPDDFATYYCQQYNTYWTFGQGTKVEIK
B10: M198-H08 (Fab, V domains shown)
VH: EVQLLESGGGLVQPGGSLRLSCAASGFTFSIYDMYWVRQAPGKGLEWVSSIGPSGGPTAYADSVKGRFTISRDNSKNTLYLQMNSLRAEDTAVYYCAYRRTGIPRRDAFDIWGQGTMVTVSS
VL: DIQMTQSPSTLSASVGDRVTITCRASQSISSWLAWYQQKPGKAPNLLIYKASTLESGVPSRFSGSGSGTEFTLTISSLQPDDFATYYCQQYNTYWTFGQGTKVEIK
B11: M202-E06 (Fab, V domains shown)
VH: EVQLLESGGGLVQPGGSLRLSCAASGFTFSHYIMMWVRQAPGKGLEWVSGIYSSGGITVYADSVKGRFTISRDNSKNTLYLQMNSLRAEDTAVYYCAYRRRGVPRRDDFDIWGQGTMVTVSS
VL: DIQMTQSPSTLSASVGDRVTITCRASQSISSWLAWYQQKPGKAPNLLIYKASTLESGVPSRFSGSGSGTEFTLTISSLQPDDFATYYCQQYNTYWTFGQGTKVEIK
B12: M197-F03 (Fab, V domains shown)
VH: EVQLLESGGGLVQPGGSLRLSCAASGFTFSIYSMFWVRQAPGKGLEWVSSIGPSGGVTHYADSVKGRFTISRDNSKNTLYLQMNSLRAEDTAVYYCAYRRTGIPRRDAFDIWGQGTMVTVSS
VL: DIQMTQSPSTLSASVGDRVTITCRASQSISSWLAWYQQKPGKAPNLLIYKASTLESGVPSRFSGSGSGTEFTLTISSLQPDDFATYYCQQYNTYWTFGQGTKVEIK
B13: M198-E02 (Fab, V domains shown)
VH: EVQLLESGGGLVQPGGSLRLSCAASGFTFSIYSMYWVRQAPGKGLEWVSYIRPSGGNTKYADSVKGRFTISRDNSKNTLYLQMNSLRAEDTAVYYCAYRRTGIPRRDAFDIWGQGTMVTVSS
VL: DIQMTQSPSTLSASVGDRVTITCRASQSISSWLAWYQQKPGKAPNLLIYKASTLESGVPSRFSGSGSGTEFTLTISSLQPDDFATYYCQQYNTYWTFGQGTKVEIK
B14: M202-F06 (Fab, V domains shown)
VH: EVQLLESGGGLVQPGGSLRLSCAASGFTFSHYIMMWVRQAPGKGLEWVSGIYSSGGITVYADSVKGRFTISRDNSKNTLYLQMNSLRAEDTAVYYCAYRRTGVPRWDAFDIWGQGTMVTVSS
VL: DIQMTQSPSTLSASVGDRVTITCRASQSISSWLAWYQQKPGKAPNLLIYKASTLESGVPSRFSGSGSGTEFTLTISSLQPDDFATYYCQQYNTYWTFGQGTKVEIK
B15: M195-C12 (Fab, V domains shown)
VH: EVQLLESGGGLVQPGGSLRLSCAASGFTFSMYQMFWVRQAPGKGLEWVSSISPGGGTQYADSVKGRFTISRDNSKNTLYLQMNSLRAEDTAVYYCAYRRTGIPRRDAFDIWGQGTMVTVSS
VL: DIQMTQSPSTLSASVGDRVTITCRASQSISSWLAWYQQKPGKAPNLLIYKASTLESGVPSRFSGSGSGTEFTLTISSLQPDDFATYYCQQYNTYWTFGQGTKVEIK
B16: M195-B12 (Fab, V domains shown)
VH: EVQLLESGGGLVQPGGSLRLSCAASGFTFSKYWMYWVRQAPGKGLEWVSYIRPSGGQTYYADSVKGRFTISRDNSKNTLYLQMNSLRAEDTAVYYCAYRRTGIPRRDAFDIWGQGTMVTVSS
VL: DIQMTQSPSTLSASVGDRVTITCRASQSISSWLAWYQQKPGKAPNLLIYKASTLESGVPSRFSGSGSGTEFTLTISSLQPDDFATYYCQQYNTYWTFGQGTKVEIK
B17: M197-H11 (Fab, V domains shown)
VH: EVQLLESGGGLVQPGGSLRLSCAASGFTFSIYNMIWVRQAPGKGLEWVSSIYPSGGWTTYADSVKGRFTISRDNSKNTLYLQMNSLRAEDTAVYYCAYRRTGIPRRDAFDIWGQGTMVTVSS
VL: DIQMTQSPSTLSASVGDRVTITCRASQSISSWLAWYQQKPGKAPNLLIYKASTLESGVPSRFSGSGSGTEFTLTISSLQPDDFATYYCQQYNTYWTFGQGTKVEIK
B18: M202-H05 (Fab, V domains shown)
VH: EVQLLESGGGLVQPGGSLRLSCAASGFTFSHYIMMWVRQAPGKGLEWVSGIYSSGGITVYADSVKGRFTISRDNSKNTLYLQMNSLRAEDTAVYYCAFRRTGVPRRDVFDIWGQGTMVTVSS
VL: DIQMTQSPSTLSASVGDRVTITCRASQSISSWLAWYQQKPGKAPNLLIYKASTLESGVPSRFSGSGSGTEFTLTISSLQPDDFATYYCQQYNTYWTFGQGTKVEIK
B19: M198-F08 (Fab, V domains shown)
VH: EVQLLESGGGLVQPGGSLRLSCAASGFTFSVYSMWWVRQAPGKGLEWVSSISSSGGMTEYADSVKGRFTISRDNSKNTLYLQMNSLRAEDTAVYYCAYRRTGIPRRDAFDIWGQGTMVTVSS
VL: DIQMTQSPSTLSASVGDRVTITCRASQSISSWLAWYQQKPGKAPNLLIYKASTLESGVPSRFSGSGSGTEFTLTISSLQPDDFATYYCQQYNTYWTFGQGTKVEIK
B20: M202-G03 (Fab, V domains shown)
VH: EVQLLESGGGLVQPGGSLRLSCAASGFTFSHYIMMWVRQAPGKGLEWVSGIYSSGGITVYADSVKGRFTISRDNSKNTLYLQMNSLRAEDTAVYYCAFRRTGVPRRDSFEIWGQGTMVTVSS
VL: DIQMTQSPSTLSASVGDRVTITCRASQSISSWLAWYQQKPGKAPNLLIYKASTLESGVPSRFSGSGSGTEFTLTISSLQPDDFATYYCQQYNTYWTFGQGTKVEIK
B21: M197-F01 (Fab, V domains shown)
VH: EVQLLESGGGLVQPGGSLRLSCAASGFTFSIYHMYWVRQAPGKGLEWVSSIGPSGGPTGYADSVKGRFTISRDNSKNTLYLQMNSLRAEDTAVYYCAYRRTGIPRRDAFDIWGQGTMVTVSS
VL: DIQMTQSPSTLSASVGDRVTITCRASQSISSWLAWYQQKPGKAPNLLIYKASTLESGVPSRFSGSGSGTEFTLTISSLQPDDFATYYCQQYNTYWTFGQGTKVEIK

The values below come from US9266964.

For the assay, the target named is human plasma kallikrein (human, UniProt P03952 20-390; P03952 391-638). Nature of the assay: cell-based or functional assay.
Chain of human plasma kallikrein (P03952 20-390, chain 1 of 2): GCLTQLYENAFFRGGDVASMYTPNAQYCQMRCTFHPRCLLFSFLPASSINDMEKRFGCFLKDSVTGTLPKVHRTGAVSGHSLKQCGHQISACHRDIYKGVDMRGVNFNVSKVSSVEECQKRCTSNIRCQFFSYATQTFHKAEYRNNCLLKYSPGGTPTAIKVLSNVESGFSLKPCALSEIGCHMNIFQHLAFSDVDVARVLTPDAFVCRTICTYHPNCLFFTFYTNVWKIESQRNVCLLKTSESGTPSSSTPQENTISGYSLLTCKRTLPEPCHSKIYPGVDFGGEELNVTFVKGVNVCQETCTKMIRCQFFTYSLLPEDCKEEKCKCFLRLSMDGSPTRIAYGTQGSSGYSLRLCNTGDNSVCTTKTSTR
Chain of human plasma kallikrein (P03952 391-638, chain 2 of 2): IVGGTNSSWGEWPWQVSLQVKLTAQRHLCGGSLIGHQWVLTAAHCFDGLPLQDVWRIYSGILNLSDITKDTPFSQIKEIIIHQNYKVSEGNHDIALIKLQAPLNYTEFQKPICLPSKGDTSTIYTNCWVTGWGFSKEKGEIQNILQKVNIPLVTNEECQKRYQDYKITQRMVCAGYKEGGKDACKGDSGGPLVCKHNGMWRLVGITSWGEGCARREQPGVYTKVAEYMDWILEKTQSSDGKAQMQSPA
Regarding B1, the “% inhibition at 10 nM” value worked out at 92.9%.

Regarding B2, the “% inhibition at 10 nM” value amounted to 89.1%.

Consider B3, for which the “% inhibition at 10 nM” value worked out at 88.9%.

Turning to B4, the “% inhibition at 10 nM” value was 85.8%.

On to B5, for which the “% inhibition at 10 nM” value stood at 90.8%.

With B6, the “% inhibition at 10 nM” value was found to be 84.6%.

Regarding B7, the “% inhibition at 10 nM” value stood at 85.4%.

B8: the “% inhibition at 10 nM” value turned out to be 86.1%.

Turning to B9, the “% inhibition at 10 nM” value worked out at 92.5%.

Consider B10, for which the “% inhibition at 10 nM” value came to 92.3%.

For B11, the “% inhibition at 10 nM” value turned out to be 91.5%.

For B12, the “% inhibition at 10 nM” value stood at 90.7%.

On to B13, for which the “% inhibition at 10 nM” value was 90.3%.

For B14, the “% inhibition at 10 nM” value came to 84.2%.

Turning to B15, the “% inhibition at 10 nM” value is 84.2%.

Turning to B16, the “% inhibition at 10 nM” value came out at 87.7%.

On to B17, for which the “% inhibition at 10 nM” value was 92.9%.

With B18, the “% inhibition at 10 nM” value worked out at 84%.

As for B19, the “% inhibition at 10 nM” value was found to be 91.8%.

As to B20, the “% inhibition at 10 nM” value was determined as 88.3%.

As for B21, the “% inhibition at 10 nM” value is 92.6%.
